In patent US8026218 (UNIVERSITY OF ARIZONA, dated 2011):
Where two headings read alike, the source gives them in different places. Bridge positions count the residues as written; N and C are the ends. Square brackets hold non-standard residues; d marks the D form. Ends that are not written are not given here. * marks the point of attachment. Glc = O-glucosyl on Ser side chain (Ser(OGlu)/Ser(OGlc)); NH(3,5-(CF3)2-benzyl) = FC(F)(F)c1cc(CN*)cc(C(F)(F)F)c1; OBzl(3,5-(CF3)2) = FC(F)(F)c1cc(CO*)cc(C(F)(F)F)c1; NH‑Bn(CF3)2 = C-terminal Bn(CF3)2 amide; Dmt = Cc1cc(O)cc(C)c1C[C@H](N)C(=O)O; Met(O) = CS(=O)CC[C@H](N)C(=O)O; NMe(benzyl) = CN(Cc1ccccc1)*; Nle = CCCC[C@H](N)C(=O)O; NHBn = c1ccc(CN*)cc1; OBn = c1ccc(CO*)cc1; βAla = NCCC(=O)O

Experiments:
[1] = biological target: T1, human NK1 receptor (human, UniProt P25103 1-407); test: radioligand competition vs [3H]substance P, membranes of hNK1 CHO cells
T1 construct: whole, on cells; Used as membrane preparations of transfected CHO cells; also called hNK1; human neurokinin-1 receptor
T1 sequence (P25103 whole entry): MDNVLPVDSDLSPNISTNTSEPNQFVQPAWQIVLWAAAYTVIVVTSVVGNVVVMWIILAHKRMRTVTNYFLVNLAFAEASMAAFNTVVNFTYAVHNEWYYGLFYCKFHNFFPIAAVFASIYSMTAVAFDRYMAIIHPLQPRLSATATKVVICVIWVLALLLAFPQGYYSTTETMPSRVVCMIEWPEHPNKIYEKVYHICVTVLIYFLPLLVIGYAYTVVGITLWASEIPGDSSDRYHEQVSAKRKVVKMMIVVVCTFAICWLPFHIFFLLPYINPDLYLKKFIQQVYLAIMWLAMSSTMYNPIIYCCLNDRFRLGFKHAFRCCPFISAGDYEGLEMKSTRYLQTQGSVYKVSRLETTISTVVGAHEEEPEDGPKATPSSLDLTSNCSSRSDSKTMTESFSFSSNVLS

[2] = biological target: T2, rat NK1 receptor (rat, UniProt P14600 1-407); test: radioligand competition vs [3H]substance P, membranes of rNK1 CHO cells
T2 construct: whole, on cells; Used as membrane preparations of transfected CHO cells; also called rNK1; rat neurokinin-1 receptor
T2 sequence (P14600 whole entry): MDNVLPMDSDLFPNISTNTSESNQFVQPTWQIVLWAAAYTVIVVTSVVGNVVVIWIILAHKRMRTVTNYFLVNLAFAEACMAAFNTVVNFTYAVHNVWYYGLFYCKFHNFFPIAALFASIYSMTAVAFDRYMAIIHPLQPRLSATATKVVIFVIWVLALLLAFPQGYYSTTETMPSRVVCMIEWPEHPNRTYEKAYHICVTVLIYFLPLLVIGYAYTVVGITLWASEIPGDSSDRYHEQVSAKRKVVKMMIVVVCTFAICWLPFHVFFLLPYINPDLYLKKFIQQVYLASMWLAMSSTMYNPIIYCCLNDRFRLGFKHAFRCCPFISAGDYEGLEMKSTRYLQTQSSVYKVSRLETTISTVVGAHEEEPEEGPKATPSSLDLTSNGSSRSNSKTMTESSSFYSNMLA

[3] = biological target: µ opioid receptor of the guinea pig isolated ileum (guinea pig, UniProt P97266 1-98); test: cell-based or functional assay
Chain of µ opioid receptor of the guinea pig isolated ileum (P97266 whole entry): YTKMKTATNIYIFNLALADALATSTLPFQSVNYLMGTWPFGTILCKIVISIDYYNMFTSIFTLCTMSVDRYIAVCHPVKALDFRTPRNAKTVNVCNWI

[4] = biological target: guinea pig NK1 receptor (guinea pig, UniProt P30547 1-407); test: cell-based or functional assay
Target sequence in this assay (P30547 whole entry): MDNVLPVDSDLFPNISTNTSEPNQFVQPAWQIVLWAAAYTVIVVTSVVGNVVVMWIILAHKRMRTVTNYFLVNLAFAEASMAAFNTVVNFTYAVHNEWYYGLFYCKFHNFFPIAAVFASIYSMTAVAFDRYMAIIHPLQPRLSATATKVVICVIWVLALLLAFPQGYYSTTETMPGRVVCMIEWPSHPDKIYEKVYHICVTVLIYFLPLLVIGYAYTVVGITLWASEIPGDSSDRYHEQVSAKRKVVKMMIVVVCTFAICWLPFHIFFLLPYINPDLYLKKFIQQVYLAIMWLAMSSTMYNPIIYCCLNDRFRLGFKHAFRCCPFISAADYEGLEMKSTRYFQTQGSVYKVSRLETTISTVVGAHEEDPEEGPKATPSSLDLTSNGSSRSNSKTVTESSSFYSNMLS

[5] = biological target: T3, rat µ opioid receptor (rat, UniProt P33535 1-398); test: cell-based or functional assay
T3 sequence (P33535 whole entry): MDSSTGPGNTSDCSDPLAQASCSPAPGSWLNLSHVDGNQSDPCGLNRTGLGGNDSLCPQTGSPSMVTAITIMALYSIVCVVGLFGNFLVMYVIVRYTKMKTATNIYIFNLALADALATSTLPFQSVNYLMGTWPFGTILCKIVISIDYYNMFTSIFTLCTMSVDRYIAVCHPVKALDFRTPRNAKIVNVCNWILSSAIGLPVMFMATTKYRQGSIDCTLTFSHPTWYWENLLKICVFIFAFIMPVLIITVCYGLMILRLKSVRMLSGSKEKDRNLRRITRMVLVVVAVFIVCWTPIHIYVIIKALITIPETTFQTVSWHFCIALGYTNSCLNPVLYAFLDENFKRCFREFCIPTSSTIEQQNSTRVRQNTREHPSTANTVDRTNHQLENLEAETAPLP

[6] = biological target: T3, rat µ opioid receptor; test: radioligand competition vs [3H]DAMGO, membranes of rMOR cells
[7] = biological target: T4, human δ opioid receptor (human, UniProt P41143 1-372); test: cell-based or functional assay
T4 sequence (P41143 whole entry, stated change not applied): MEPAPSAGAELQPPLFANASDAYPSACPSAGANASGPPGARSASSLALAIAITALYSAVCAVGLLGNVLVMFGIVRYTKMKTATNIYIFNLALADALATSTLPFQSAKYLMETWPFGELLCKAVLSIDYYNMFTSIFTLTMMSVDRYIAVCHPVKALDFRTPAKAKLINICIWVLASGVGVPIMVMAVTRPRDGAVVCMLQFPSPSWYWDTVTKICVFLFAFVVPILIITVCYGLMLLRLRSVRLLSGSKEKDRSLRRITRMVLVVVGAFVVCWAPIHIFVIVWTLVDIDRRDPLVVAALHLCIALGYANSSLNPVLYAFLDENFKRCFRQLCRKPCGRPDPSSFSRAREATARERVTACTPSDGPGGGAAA

[8] = biological target: human δ opioid receptor (human, UniProt P41143 1-372); test: cell-based or functional assay; remark: listed apart in the source
Target sequence in this assay (P41143 whole entry, stated change not applied): as above

[9] = biological target: T5, rat µ opioid receptor (rat, UniProt P33535 1-398); test: cell-based or functional assay; remark: listed apart in the source
T5 sequence (P33535 whole entry): as the sequence (P33535 whole entry) above

[10] = biological target: T4, human δ opioid receptor; test: radioligand competition vs [3H]DPDPE, membranes of hDOR cells
[11] = biological target: T6, human δ opioid receptor (human, UniProt P41143 1-372); test: competition vs [3H]DPDPE, membranes of hDOR-transfected HN9.10 cells
T6 construct: whole, on cells; Assayed as membrane preparations of transfected cells; also called hDOR; DOR
T6 sequence (P41143 whole entry, stated change not applied): as the sequence (P41143 whole entry, stated change not applied) above

[12] = biological target: T6, human δ opioid receptor; test: cell-based or functional assay; remark: listed apart in the source
[13] = biological target: T7, rat µ opioid receptor (rat, UniProt P33535 1-398); test: cell-based or functional assay; remark: listed apart in the source
T7 sequence (P33535 whole entry): as the sequence (P33535 whole entry) above

[14] = biological target: guinea pig NK1 receptor (guinea pig, UniProt P30547 1-407); test: cell-based or functional assay; remark: listed apart in the source
Target sequence in this assay (P30547 whole entry): as the sequence (P30547 whole entry) above

[15] = biological target: µ opioid receptor of the guinea pig isolated ileum (guinea pig); test: cell-based or functional assay
[16] = biological target: T8, rat NK1 receptor (rat, UniProt P14600 1-407); test: competition vs [3H]substance P, membranes of rNK1-transfected CHO cells
T8 construct: whole, on cells; Assayed as membrane preparations of transfected CHO cells; also called rNK1; rNK-1
T8 sequence (P14600 whole entry): as the sequence (P14600 whole entry) above

[17] = biological target: T7, rat µ opioid receptor; test: competition vs [3H]DAMGO, membranes of rMOR-transfected HN9.10 cells
[18] = biological target: T9, human NK1 receptor (human, UniProt P25103 1-407); test: competition vs [3H]substance P, membranes of hNK1-transfected CHO cells
T9 construct: whole, on cells; Assayed as membrane preparations of transfected CHO cells; also called hNK1; human neurokinin-1 receptor
T9 sequence (P25103 whole entry): as the sequence (P25103 whole entry) above

[19] = biological target: T8, rat NK1 receptor; test: competition vs [3H]substance P, membranes of rNK1-transfected CHO cells; remark: listed apart in the source
[20] = biological target: T5, rat µ opioid receptor; test: competition vs [3H]DAMGO, rMOR cell membranes
[21] = biological target: T10, rat NK1 receptor (rat, UniProt P14600 1-407); test: competition vs [3H]Substance P, rNK1 CHO cell membranes
T10 construct: whole, on cells; membrane preparations of the transfected cells were used; also called rNK1; rNK-1
T10 sequence (P14600 whole entry): as the sequence (P14600 whole entry) above

## [Dmt][dA]GF[Nle]PS(Glc)W-{NH‑Bn(CF3)2} [DmtDAlaGlyPheNleProSer(OGlu)TrpNHBn(CF3)2 (TY056)]
[1]
  Ki: 0.0017 nM
[2]
  Ki: 10.1 nM
[3]
  GPI/LMMP opioid(mu) agonist IC50: 24.9 nM
[4]
  GPI/LMMP SP antagonist Ke: 1.2 nM
[5]
  GTP binding rMOR EC50: 44.9 nM
  GTP binding rMOR Emax: 66%
[6]
  Ki: 1.9 nM

## Y[dA]GF[Nle]PS(Glc)W-{NH‑Bn(CF3)2} [TyrDAlaGlyPheNleProSer(OGlu)TrpNHBn(CF3)2 (TY041)]
[2]
  Ki: 13.6 nM
[7]
  GTP binding hDOR EC50: 7.9 nM
  GTP binding hDOR Emax: 62%
[3]
  GPI/LMMP opioid(mu) agonist IC50: 517 nM
[4]
  GPI/LMMP SP antagonist Ke: 1.8 nM
[5]
  GTP binding rMOR EC50: 18 nM
  GTP binding rMOR Emax: 42%
[6]
  Ki: 8 nM

## Y[dA]GFGW-{O‑Bzl(CF3)2} [Tyr-DAla-Gly-Phe-Gly-Trp-O-Bzl(CF3)2]
[8]
  GTP EMax: 87
[9]
  GTP EMax: 36

## Y[dC]GF[Nle]PCW-{NH(3,5-(CF3)2-benzyl)} (disulfide 2-7, also called [D-Cys2, Cys7]TY027) [Tyr[DCysGlyPheNleProCys]TrpNHBn(CF3)2 (TY035)]
[1]
  Ki: 0.091 nM
[10]
  Ki: 1.29 nM
[7]
  GTP binding hDOR EC50: 0.02 nM
  GTP binding hDOR Emax: 11%
[3]
  GPI/LMMP opioid(mu) agonist IC50: 1010 nM
[4]
  GPI/LMMP SP antagonist Ke: 2.2 nM
[5]
  GTP binding rMOR EC50: 36 nM
  GTP binding rMOR Emax: 39%
[6]
  Ki: 79.2 nM

## [Dmt][dA]GFMPLW-NHBn [DmtDAlaGlyPheMetProLeuTrpNHBn (TY034)]
[1]
  Ki: 2.39 nM
[2]
  Ki: 317 nM
[10]
  Ki: 0.1 nM
[7]
  GTP binding hDOR EC50: 0.3 nM
[3]
  GPI/LMMP opioid(mu) agonist IC50: 11.4 nM
[4]
  GPI/LMMP SP antagonist Ke: 36.9 nM
[5]
  GTP binding rMOR EC50: 0.4 nM
[6]
  Ki: 0.14 nM

## H-Y[dA]GFLPLW-{OBzl(3,5-(CF3)2)} (also: TFA salt, TFA salt; also called TY004) [H-Tyr-D-Ala-Gly-Phe-Leu-Pro-Leu-Trp-O-3,5-Bzl(CF3)2]
[11]
  Ki: 5 nM
  LogIC50: -7.97
[12]
  [35S]GTP-γ-S binding EC50: 9.6 nM
  [35S]GTP-γ-S binding Emax: 44%
  [35S]GTP-γ-S binding LogEC50: -8.09
[13]
  [35S]GTP-γ-S binding Emax: 46%
[14]
  Substance P GPI antagonist Ke: 19.4 nM
[15]
  GPI (µ) opioid agonist IC50: 341 nM
[16]
  IC50: 20.9 nM
  LogIC50: -7.7
[17]
  Ki: 23.3 nM

## H-Y[dA]GFPLW-OBn (also: TFA salt, TFA salt; also called TY011) [H-Tyr-DAla-Gly-Phe-Pro-Leu-Trp-O-Bzl]
[18]
  Ki: 100 nM
  LogIC50: -6.7
[19]
  Ki: 270 nM
  LogIC50: -6.1

## H-Y[dA]GF[Met(O)]PLW-{OBzl(3,5-(CF3)2)} (also: TFA salt, TFA salt; also called TY023) [H-Tyr-D-Ala-Gly-Phe-Met(O)-Pro-Leu-Trp-O-3,5-Bzl(CF3)2]
[11]
  Ki: 4.8 nM
  LogIC50: -7.92
[12]
  [35S]GTP-γ-S binding Emax: 53%
  [35S]GTP-γ-S binding LogEC50: -8.73
[14]
  Substance P GPI antagonist Ke: 7.8 nM
[15]
  GPI (µ) opioid agonist IC50: 154 nM
[16]
  IC50: 54.5 nM
  LogIC50: -7.27

## Y[dA]GF[βAla]W-{O‑Bzl(CF3)2} (also called NP32) [Tyr-DAla-Gly-Phe-β-Ala-Trp-O-Bzl(CF3)2]
[20]
  Ki: 11.2 nM
[21]
  Ki: 1.6 nM
[8]
  GTP EMax: 87
[9]
  GTP EMax: 70

## H-Y[dA]GFPLW-{NMe(benzyl)} (also: TFA salt, TFA salt; also called TY010) [H-Tyr-D-Ala-Gly-Phe-Pro-Leu-Trp-NMe-Bzl]
[18]
  Ki: 1.6 nM
  LogIC50: -8.5
